Measurements taken from the supplement of paper PMC10201428.
± gives the standard deviation of the averaged measurements.

Columns and labels:
[1] = test system: VchCAST RNA-guided transposition machinery (E. coli BL21(DE3) host, lacZ target); test: relative integration efficiency (T-LR orientation) vs wild-type transposon end (log2 (normalized fold change)); transposon end mutated: right end (5 bp flank + 75 bp right end); higher = more efficient transposition
How it was run: (§1)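 A T7-driven effector plasmid encoding a CRISPR array, tniQ-cas8-cas7-cas6 and tnsA-tnsB-tnsC was co-transformed into E. coli BL21(DE3) together with a pUC57 mini-transposon donor holding barcoded pools of 1549 left-end or 1849 right-end variants. Transformants were plated with 0.1 mM IPTG at 37°C for 18 h. Illumina sequencing of PCR-amplified input plasmids and genomic integration junctions gave barcode abundances, and relative integration efficiency is their output/input fold change, normalised to reference barcodes and log-transformed.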

[2] = test system: VchCAST RNA-guided transposition machinery (E. coli BL21(DE3) host, lacZ target); test: relative integration efficiency (T-RL orientation) vs wild-type transposon end (log2 (normalized fold change)); transposon end mutated: right end (5 bp flank + 75 bp right end); higher = more efficient transposition
How it was run: as §1

Sequence | relative integration efficiency (log2) [1] | relative integration efficiency (log2) [2]
ACATTTGTTGATACAACCATAAAATGATAATTACACCCATAAATTGATAATTATCACACCCATAAATTGATATTGCCTCTGATCATAGTCAGCTGAAGCGAGACACCGACCAACATTGCACCGACAC | -0.204 ± 0.33 | -0.174 ± 0.19
ACATTTGTTGATACAACCATAAAATGATAATTACACCCATAAATTGATAATTATCACACCCATAAATTGATATTGCCTCTGATCATAGTCCAACCATAAAATGATAATTAAGACCAAGCACCGACAC | -0.498 ± 1.1 | -0.312 ± 0.44
ACATTTGTTGATACAACCATAAAATGATAATTACACCCATAAATTGATAATTATCACACCCATAAATTGATATTGCCTCTGATCATAGTCGAACTAGTTAACTAGTACGCTCAGACCGCACCGACAC | 0.192 ± 0.2 | -0.00349 ± 0.18
ACATTTGTTGATACAACCATAAAATGATAATTACACCCATAAATTGATAATTATCACACCCATAAATTGATATTGCCTCTGATCATAGTCTGTGATTGTTATCACATTTCAGACCAAGCACCGACAC | 0.209 ± 0.1 | -0.0662 ± 0.076
ACATTTGTTGATACAACCATAAAATGATAATTACACCCATAAATTGATAATTATCACACCCATAAATTGATATTGCCTCTGATCATAGTCTTGTGAGCGGATAACAAAGACCAACATGCACCGACAC | -0.0553 ± 0.18 | 0.141 ± 0.16
ACATTTGTTGATACAACCATAAAATGATAATTACACCCATAAATTGATAATTATCACACCCATAAATTGATATTGCCTCTGATCATATTTAATAATTAATTTATATATTTAAGTCAGGCACCGACAC | 0.961 ± 0.58 | 0.707 ± 0.19
ACATTTGTTGATACAACCATAAAATGATAATTACACCCATAAATTGATAATTATCACACCCATAAATTGATATTGCCTCTGATCATCAACCATAAAATGATAATTAAGTCAGACCAAGCACCGACAC | 0.201 ± 0.068 | 0.146 ± 0.35
ACATTTGTTGATACAACCATAAAATGATAATTACACCCATAAATTGATAATTATCACACCCATAAATTGATATTGCCTCTGATCATGGTGTCTCGCTTCAGCAGTCAGACCAACATTGCACCGACAC | -0.507 ± 0.025 | -0.125 ± 0.18
ACATTTGTTGATACAACCATAAAATGATAATTACACCCATAAATTGATAATTATCACACCCATAAATTGATATTGCCTCTGATCATTTACTTTTGGTTACATATTTAGTCAGACCAAGCACCGACAC | 0.713 ± 0.049 | 0.0213 ± 0.19
ACATTTGTTGATACAACCATAAAATGATAATTACACCCATAAATTGATAATTATCACACCCATAAATTGATATTGCCTCTGATCATTTGCATAAAAATTCATCTAGTCAGACCAACAGCACCGACAC | -0.0028 ± 0.22 | -0.15 ± 0.36
ACATTTGTTGATACAACCATAAAATGATAATTACACCCATAAATTGATAATTATCACACCCATAAATTGATATTGCCTCTGATCCAACCATAAAATGATAATTAATAGTCAGACCAAGCACCGACAC | 0.046 ± 0.066 | 0.156 ± 0.25
ACATTTGTTGATACAACCATAAAATGATAATTACACCCATAAATTGATAATTATCACACCCATAAATTGATATTGCCTCTGATCGTTTTAAGGATGACTTCAGTCGCGCCGTACTTCGCACCGACAC | -0.209 ± 0.13 | -0.207 ± 0.2
ACATTTGTTGATACAACCATAAAATGATAATTACACCCATAAATTGATAATTATCACACCCATAAATTGATATTGCCTCTGCAACCATAAAATGATAATTAATCATAGTCAGACCAAGCACCGACAC | -0.129 ± 0.36 | -0.336 ± 0.3
ACATTTGTTGATACAACCATAAAATGATAATTACACCCATAAATTGATAATTATCACACCCATAAATTGATATTGCCTCTGGCGCTCTGTACCCCGCTCGGTCCTCCCGCGCATCGCGCACCGACAC | -0.0593 ± 0.17 | 0.194 ± 0.14
ACATTTGTTGATACAACCATAAAATGATAATTACACCCATAAATTGATAATTATCACACCCATAAATTGATATTGCCTCTGGCTAGCACTATACCTAGGACTGAGCTAGCCGTCAACGCACCGACAC | 0.877 ± 0.31 | -4.7 ± 0.55
ACATTTGTTGATACAACCATAAAATGATAATTACACCCATAAATTGATAATTATCACACCCATAAATTGATATTGCCTCTGGCTAGCATTATACCTAGGACTGAGCTAGCTGTCAACGCACCGACAC | 1.91 ± 0.064 | -2.99 ± 0.27
ACATTTGTTGATACAACCATAAAATGATAATTACACCCATAAATTGATAATTATCACACCCATAAATTGATATTGCCTCTGGCTAGCATTGTACCTAGGACTGAGCTAGCCATAAACGCACCGACAC | 0.293 ± 0.3 | -0.0442 ± 0.11
